Measurements from patent publication US20240368242A1 (SHATTUCK LABS, published 2024).
Values belong to the binder of their own block, whether it stands above or below them.

B3: murine CD172a(SIRPα)-Fc-CD40L chimeric protein (Fc fusion)
chain 1: KELKVTQPEKSVSVAAGDSTVLNCTLTSLLPVGPIRWYRGVGPSRLLIYSFAGEYVPRIRNVSDTTKRNNMDFSIRISNVTPADAGIYYCVKFQKGSSEPDTEIQSGGGTEVYVLAKPSPPEVSGPADRGIPDQKVNFTCKSHGFSPRNITLKWFKDGQELHPLETTVNPSGKNVSYNISSTVRVVLNSMDVNSKVICEVAHITLDRSPLRGIANLSNFIRVSPTVKVTQQSPTSMNQVNLTCRAERFYPEDLQLIWLENGNVSRNDTPKNLTKNTDGTYNYTSLFLVNSSAHREDVVFTCQVKHDQQPAITRNHTVLGFAHSSDQGSMQTFPDNNATHNWN
chain 2: HRRLDKVEEEVNLHEDFVFIKKLKRCNKGEGSLSLLNCEEMRRQFEDLVKDITLNKEEKKENSFEMQRGDEDPQIAAHVVSEANSNAASVLQWAKKGYYTMKSNLVMLENGKQLTVKREGLYYVYTQVTFCSNREPSSQRPFIVGLWLKPSSGSERILLKAANTHSSSQLCEQQSVHLGGVFELQAGASVFVNVTEASQVIHRVGFSSFGLLKL

Tests used:
[1] = biological target: T1, recombinant human OX40-His protein (human, UniProt P43489 29-216); assay: SPR, His-tagged target on ProteOn HTG tris-NTA chip, positive control
T1 construct: also called polyhistidine-tagged recombinant human OX40; hOX40; not shown: polyhistidine tag
T1 sequence (looked up): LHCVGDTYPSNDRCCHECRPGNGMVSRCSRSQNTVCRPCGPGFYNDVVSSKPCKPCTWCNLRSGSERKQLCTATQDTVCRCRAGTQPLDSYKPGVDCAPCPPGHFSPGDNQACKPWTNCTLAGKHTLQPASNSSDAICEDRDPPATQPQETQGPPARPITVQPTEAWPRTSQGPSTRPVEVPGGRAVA
Source text: Specifically, polyhistidine-tagged versions of recombinant human PD-L1, PD-L2, or OX40 was bound to ProteOn HTG tris-NTA chips (BIORAD).

[2] = biological target: T2, OX40 receptor used in the functional ELISA of Example 12 (human, UniProt P43489 29-216); assay: ELISA, plate-bound OX40, detection with αOX40L and HRP detection antibody; fold dilution series
T2 construct: also called hOX40
T2 sequence (looked up): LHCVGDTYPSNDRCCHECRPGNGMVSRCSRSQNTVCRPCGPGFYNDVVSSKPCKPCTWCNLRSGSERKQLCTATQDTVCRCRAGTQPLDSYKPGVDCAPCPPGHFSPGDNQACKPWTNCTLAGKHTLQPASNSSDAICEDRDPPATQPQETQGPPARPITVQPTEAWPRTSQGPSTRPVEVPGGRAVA

[3] = biological target: B3; assay: SPR, binding to mCD40
[4] = biological target: T3, murine CD40 expressed on CHOK1 cells (CHOK1/mCD40) (murine, UniProt P27512 20-289); assay: flow cytometry on CHOK1/mCD40 cells
T3 construct: whole, on cells
T3 sequence (P27512 20-289): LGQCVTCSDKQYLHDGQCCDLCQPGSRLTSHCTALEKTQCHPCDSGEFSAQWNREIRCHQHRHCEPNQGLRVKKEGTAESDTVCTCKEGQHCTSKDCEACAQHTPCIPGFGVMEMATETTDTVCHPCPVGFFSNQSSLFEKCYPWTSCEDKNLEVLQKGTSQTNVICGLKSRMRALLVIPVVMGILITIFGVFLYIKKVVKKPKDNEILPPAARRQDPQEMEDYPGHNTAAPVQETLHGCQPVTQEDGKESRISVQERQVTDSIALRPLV

[5] = biological target: plate-bound recombinant human PD-L1 protein (human, UniProt Q9NZQ7 19-238, limits assumed); assay: functional ELISA on human PD-L1; x axis is dilution (1 to 16), concentration not given
plate-bound recombinant human PD-L1 protein, sequence (Q9NZQ7 19-238 limits assumed): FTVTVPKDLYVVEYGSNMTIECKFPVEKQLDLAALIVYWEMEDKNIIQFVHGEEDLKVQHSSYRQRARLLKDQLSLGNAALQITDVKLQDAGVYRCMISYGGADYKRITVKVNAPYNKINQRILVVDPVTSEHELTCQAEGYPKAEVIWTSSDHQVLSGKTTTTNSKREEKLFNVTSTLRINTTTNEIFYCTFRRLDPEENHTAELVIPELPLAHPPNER

[6] = biological target: T2, OX40 receptor used in the functional …; assay: functional ELISA on human OX40; x axis is dilution (1 to 16), concentration not given
[7] = biological target: T4, human OX40 expressed on Jurkat cells (Jurkat/hOX40) (human, UniProt P43489 29-277); assay: flow cytometry on Jurkat-hOX40 cells; Jurkat cells without hOX40 as control
T4 construct: whole, on cells
T4 sequence (looked up): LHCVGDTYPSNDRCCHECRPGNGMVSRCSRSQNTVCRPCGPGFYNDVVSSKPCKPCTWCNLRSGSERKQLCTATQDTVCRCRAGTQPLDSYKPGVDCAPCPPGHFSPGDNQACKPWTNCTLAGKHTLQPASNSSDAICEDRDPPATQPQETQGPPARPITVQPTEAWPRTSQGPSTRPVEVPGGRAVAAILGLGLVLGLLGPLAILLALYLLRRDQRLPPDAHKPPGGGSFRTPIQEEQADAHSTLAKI

[8] = biological target: Galectin-1 (human, UniProt P09382 2-135, limits assumed); assay: microarray containing about 6,000 human membrane proteins
Galectin-1, sequence (P09382 2-135 limits assumed): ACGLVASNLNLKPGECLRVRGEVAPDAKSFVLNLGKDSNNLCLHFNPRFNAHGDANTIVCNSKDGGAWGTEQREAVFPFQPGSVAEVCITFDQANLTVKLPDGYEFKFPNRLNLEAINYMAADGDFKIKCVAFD

[9] = biological target: T5, TNFRSF4; assay: as above
T5 construct: also called TNF Receptor Superfamily Member 4; canonical isoform
T5 chain: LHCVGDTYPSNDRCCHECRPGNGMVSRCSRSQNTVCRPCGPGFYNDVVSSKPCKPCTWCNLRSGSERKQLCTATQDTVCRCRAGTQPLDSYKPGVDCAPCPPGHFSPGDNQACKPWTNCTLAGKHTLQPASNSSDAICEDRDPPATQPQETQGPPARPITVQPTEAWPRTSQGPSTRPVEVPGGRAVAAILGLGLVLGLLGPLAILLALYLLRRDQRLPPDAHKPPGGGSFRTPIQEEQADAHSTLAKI

[10] = biological target: T6, FcRn-His (Example 11); assay: SPR (BioRad ProteOn XPR 360), His-tagged target chip-bound
T6 construct: A beta-2-microglobulin chain is not mentioned

binding result [1]: binds
binding result [2]: binds
B1: recombinant human OX40L-Fc (Fc fusion, UniProt P23510 51-183, looked up)
chain: QVSHRYPRIQSIKVQFTEYKKEKGFILTSQKEDEIMKVQNNSVIINCDGFYLISLKGYFSQEVNISLHYQKDEEPLFQLKKVRSVNSLMVASLTYKDKVYLNVTTDNTSLDDFHVNGGELILIHQNPGEFCVL
notes: Positive control in SPR; not shown: Fc not described

koff [3]: 5.51e-05 s⁻¹
kon [3]: 72800 M⁻¹ s⁻¹
B2: recombinant murine CD40 protein (receptor, UniProt P27512 24-193, looked up)
chain: VTCSDKQYLHDGQCCDLCQPGSRLTSHCTALEKTQCHPCDSGEFSAQWNREIRCHQHRHCEPNQGLRVKKEGTAESDTVCTCKEGQHCTSKDCEACAQHTPCIPGFGVMEMATETTDTVCHPCPVGFFSNQSSLFEKCYPWTSCEDKNLEVLQKGTSQTNVICGLKSRMR
notes: also called mCD40

Binder: B3
EC50 [4]: 20.2 nM

binding result [5]: binds
binding result [6]: binds
binding result [7]: binds
B4: human PD-1-Fc-OX40L chimeric protein treated with the deglycosylase PNGase F (Fc fusion)
chain: LDSPDRPWNPPTFSPALLVVTEGDNATFTCSFSNTSESFVLNWYRMSPSNQTDKLAAFPEDRSQPGQDCRFRVTQLPNGRDFHMSVVRARRNDSGTYLCGAISLAPKAQIKESLRAELRVTERRAEVPTAHPSPSPRPAGQFQSKYGPPCPSCPAPEFLGGPSVFLFPPKPKDTLMISRTPEVTCVVVDVSQEDPEVQFNWYVDGVEVHNAKTKPREEQFNSTYRVVSVLTVLHQDWLSGKEYKCKVSSKGLPSSIEKTISNATGQPREPQVYTLPPSQEEMTKNQVSLTCLVKGFYPSDIAVEWESNGQPENNYKTTPPVLDSDGSFFLYSRLTVDKSSWQEGNVFSCSVMHEALHNHYTQKSLSLSLGKIEGRMDQVSHRYPRIQSIKVQFTEYKKEKGFILTSQKEDEIMKVQNNSVIINCDGFYLISLKGYFSQEVNISLHYQKDEEPLFQLKKVRSVNSLMVASLTYKDKVYLNVTTDNTSLDDFHVNGGELILIHQNPGEFCVL
modifications: N-glycans removed with PNGase F
notes: also called deglycosylated hPD-1-Fc-OX40L

binding result [8]: binds
binding result [9]: binds
B5: human PD-1-Fc-OX40L chimeric protein (Fc fusion)
chain: LDSPDRPWNPPTFSPALLVVTEGDNATFTCSFSNTSESFVLNWYRMSPSNQTDKLAAFPEDRSQPGQDCRFRVTQLPNGRDFHMSVVRARRNDSGTYLCGAISLAPKAQIKESLRAELRVTERRAEVPTAHPSPSPRPAGQFQSKYGPPCPSCPAPEFLGGPSVFLFPPKPKDTLMISRTPEVTCVVVDVSQEDPEVQFNWYVDGVEVHNAKTKPREEQFNSTYRVVSVLTVLHQDWLSGKEYKCKVSSKGLPSSIEKTISNATGQPREPQVYTLPPSQEEMTKNQVSLTCLVKGFYPSDIAVEWESNGQPENNYKTTPPVLDSDGSFFLYSRLTVDKSSWQEGNVFSCSVMHEALHNHYTQKSLSLSLGKIEGRMDQVSHRYPRIQSIKVQFTEYKKEKGFILTSQKEDEIMKVQNNSVIINCDGFYLISLKGYFSQEVNISLHYQKDEEPLFQLKKVRSVNSLMVASLTYKDKVYLNVTTDNTSLDDFHVNGGELILIHQNPGEFCVL
notes: Glycosylated; also called hPD-1-Fc-OX40L

Kd [10]: 55.6 nM
koff [10]: 0.00262 s⁻¹
kon [10]: 47200 M⁻¹ s⁻¹
B6: murine PD-1-Fc-OX40L chimeric protein (Fc fusion)
chain 1: LEVPNGPWRSLTFYPAWLTVSEGANATFTCSLSNWSEDLMLNWNRLSPSNQTEKQAAFCNGLSQPVQDARFQIIQLPNRHDFHMNILDTRRNDSGIYLCGAISLHPKAKIEESPGAELVVTERILETSTRYPSPSPKPEGRFQGM
chain 2: SSSPAKDPPIQRLRGAVTRCEDGQLFISSYKNEYQTMEVQNNSVVIKCDGLYIIYLKGSFFQEVKIDLHFREDHNPISIPMLNDGRRIVFTVVASLAFKDKVYLTVNAPDTLCEHLQINDGELIVVQLTPGYCAPEGSYHSTVNQVPL
